Results from US20230104578A1 (ADRENOMED, published 2023).
Where two headings read alike, the source gives them in different places. Ends that are not written are not given here.

What was measured:
[1] = molecular target: T1, human recombinant adrenomedullin receptor (CRLR+RAMP3) (human); test: cell-based or functional assay
[2] = molecular target: T1, human recombinant adrenomedullin …; test: cell-based or functional assay; remark: listed apart in the source

T1 sequence (Q16602 whole entry, chain 1 of 2): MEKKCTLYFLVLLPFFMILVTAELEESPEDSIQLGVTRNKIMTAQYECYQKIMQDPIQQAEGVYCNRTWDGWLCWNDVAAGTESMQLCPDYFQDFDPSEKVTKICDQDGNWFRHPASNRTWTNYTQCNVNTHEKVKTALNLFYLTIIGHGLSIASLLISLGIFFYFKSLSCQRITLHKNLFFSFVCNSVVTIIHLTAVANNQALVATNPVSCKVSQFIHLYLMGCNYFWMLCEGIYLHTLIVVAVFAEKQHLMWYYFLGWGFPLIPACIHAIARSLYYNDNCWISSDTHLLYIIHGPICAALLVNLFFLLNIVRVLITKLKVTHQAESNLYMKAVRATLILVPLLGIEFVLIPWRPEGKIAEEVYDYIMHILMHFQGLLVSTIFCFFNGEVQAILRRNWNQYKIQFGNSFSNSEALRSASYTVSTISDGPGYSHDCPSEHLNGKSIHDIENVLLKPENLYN
T1 sequence (O60896 whole entry, chain 2 of 2, further chain): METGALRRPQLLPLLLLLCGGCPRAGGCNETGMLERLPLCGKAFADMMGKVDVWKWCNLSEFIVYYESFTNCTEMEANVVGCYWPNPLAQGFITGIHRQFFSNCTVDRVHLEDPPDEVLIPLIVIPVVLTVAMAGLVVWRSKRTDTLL

B1: Murine ADM 1-50 (peptide)
peptide: YRQSMNQGSRSNGCRFGTCTFQKLAHQIYQLTDKDKDGMAPRNKISPQGY-NH2
modifications: ends and bridges not checked
Question: B1 was tested. Which “EC50 (read off the curve); cAMP (HTRF), % activation” value [1] did it give?
Answer: ~0.08 nM

B2: mature human Adrenomedullin (amino acids 1-52) (peptide)
peptide: YRQSMNNFQGLRSFGCRFGTCTVQKLAHQIYQFTDKDKDNVAPRSKISPQGY-NH2
modifications: ends and bridges not checked
Question: How did the “EC50 (read off the curve); cAMP (HTRF), % activation” value [2] turn out when B2 was run?
Answer: ~1 nM
